In publication PMC13071878, “Yeast Display Technology Enables Rapid Discovery of Low-Nanomolar Macrocyclic Peptide Inhibitors of Human Angiotensin-Converting Enzyme 2” (Journal of Medicinal Chemistry, 2026):
Values joined by “and” are separate entries in the source; they are usually repeats but may differ in a detail not shown here. Equal entries are not always repeated. Where two headings read alike, the source gives them in different places.

Assays:
hACE1 = biological target: T1, hACE1 (Homo sapiens, UniProt P12821); test: biochemical
T1 construct: purchased R&D Systems
Description: The activity assay was performed by incubating 0.25 nM of hACE2 with 50 μM fluorogenic substrate Mca-Ala-Pro-Lys­(Dnp)–OH (MedChemExpress, Monmouth Junction, NJ, USA) and 3-fold MP dilutions (ranging from 0.03 nM to 100 μM). […] All reagents were diluted in 10 mM Tris–HCl, pH 7.4, 300 mM NaCl, 100 μM ZnCl2, 0.1% w/v BSA, and 0.1% v/v DMSO assay buffer. The measurements were performed on a Berthold TriStar LB 941 microplate reader (Berthold Technologies, Bad Wildbad, Germany) using flat-bottom 96-well half area Corning Costar plates (Corning, New York, USA). The enzymatic reactions were performed at 25 °C for 90 min, under shaking with a maximum excitation wavelength (λex) of 320 nm and maximum emission wavelength (λem) of 405 nm. The initial velocities were monitored as changes in fluorescence intensity. Half-maximum inhibitory concentration (IC50) values were determined using GraphPad Prism v8.2.1 software (GraphPad software Inc., San Diego, CA, USA). […] Reactions were initiated by adding hACE2 (final concentration 0.25 nM) to the fluorogenic substrate in assay buffer at 25 °C. Fluorescence was recorded as described earlier (λex = 320 nm, λem = 405 nm) using a Berthold TriStar LB 941 microplate reader (Berthold Technologies, Bad Wildbad, Germany). Initial velocities (V 0) were plotted against substrate concentrations [S] and analyzed via nonlinear regression using a one-site specific binding model using GraphPad Prism v8.2.1 software (GraphPad software Inc., San Diego, CA, USA). […] All reagents were diluted in 10 mM Tris-HCl, pH 7.4, 300 mM NaCl, 100 μM ZnCl2, 0.1% w/v BSA, and 0.1% v/v DMSO buffer. Measurements and data analysis were performed as mentioned above.

[1] = Plasma stability of synthetic peptides (LC-MS); conditions: human, plasma, plasma half-life t1/2, human plasma, 37 °C, 10 μM, LC-MS, n = 2
Description: The mixtures were incubated at 37 °C in a water bath (VWR, Pennsylvania, PA, USA). At designated time points (0, 0.25, 0.5, 1, 2, 4, 8, 24, and 48 h), 100 μL aliquots were withdrawn and quenched with 100 μL of 100% v/v ACN. Following centrifugation (10 min at 15000 g, 4 °C), 100 μL of the supernatant was collected and diluted with 50 μL of solvent A (99.9% v/v H2O and 0.1% v/v FA). Samples were characterized by LC–MS using an Agilent 1260 Infinity II LC system coupled to an InfinityLab LC/MSD mass spectrometer (Agilent Technologies, Santa Clara, CA, USA). The system operated with a standard ESI source in negative ionization mode. Separation was performed on a reversed-phase Symmetry C18 column (5 μm, 150 mm × 4.6 mm, Waters, Milford, MA, USA) using a linear gradient of 10–100% solvent B over 22 min at a flow rate of 0.6 mL/min (Solvent A: 99.9% v/v H2O and 0.1% v/v FA; Solvent B: 99.9% v/v ACN and 0.1% v/v FA). Data acquisition, processing, and analysis were performed using MestReNova v.12.0.1 (Mestrelab Research, Santiago de Compostela, Spain). All samples were analyzed in duplicate (n = 2). The percentage of remaining peptide was calculated by integrating the peak areas, with the area at 0 h defined as 100%. Half-lives (t 1/2) were determined via nonlinear regression analysis using GraphPad Prism (GraphPad software Inc., San Diego, CA, USA). Data are presented as mean values ± s.d.

hACE2 [2] = biological target: T2, hACE2 (Homo sapiens, UniProt Q9BYF1); test: Isothermal titration calorimetry of synthetic MPs with hACE2; assay type: binding; conditions: 25 °C
Description: Isothermal titration calorimetry (ITC) experiments were performed at 25 °C using a MicroCal iTC200 instrument ([…], Malvern Panalytical, Malvern, UK). The hACE2 protein (initial stock 11 mg/mL, 20 mM Tris pH 7.4, 200 mM NaCl) was diluted into the assay buffer (100 mM Tris pH 7.4, 200 mM NaCl) to a final concentration of 5 μM. […] Titrations consisted of an initial 0.4 μL injection (excluded from subsequent data analysis), followed by 18 injections of 2 μL each, with a stirring rate of 750 rpm to ensure rapid mixing. A 120 s interval was maintained between injections to ensure the baseline returned to equilibrium. Blank experiments involving the titration of the synthetic MPs into the assay buffer were performed to determine and subtract the heats of dilution. Data processing was conducted using the Origin software package version 7 (OriginLab Corporation, Northampton, MA, USA). The integrated heat signals were fitted to a single-site binding model to determine the association constant (K A), the dissociation constant ([…]), the enthalpy change (ΔH), and the binding stoichiometry (n). The Gibbs free energy (ΔG) and the entropy change (ΔS) were calculated using the standard thermodynamic relationship: ΔG=ΔH−TΔS=−RTln(KA)

hACE2 [3] = biological target: T2, hACE2; test: biochemical
Description: The activity assay was performed by incubating 0.25 nM of hACE2 with 50 μM fluorogenic substrate Mca-Ala-Pro-Lys­(Dnp)–OH (MedChemExpress, Monmouth Junction, NJ, USA) and 3-fold MP dilutions (ranging from 0.03 nM to 100 μM). […] All reagents were diluted in 10 mM Tris–HCl, pH 7.4, 300 mM NaCl, 100 μM ZnCl2, 0.1% w/v BSA, and 0.1% v/v DMSO assay buffer. The measurements were performed on a Berthold TriStar LB 941 microplate reader (Berthold Technologies, Bad Wildbad, Germany) using flat-bottom 96-well half area Corning Costar plates (Corning, New York, USA). The enzymatic reactions were performed at 25 °C for 90 min, under shaking with a maximum excitation wavelength (λex) of 320 nm and maximum emission wavelength (λem) of 405 nm. The initial velocities were monitored as changes in fluorescence intensity. Half-maximum inhibitory concentration (IC50) values were determined using GraphPad Prism v8.2.1 software (GraphPad software Inc., San Diego, CA, USA). […] Fluorescence was recorded as described earlier (λex = 320 nm, λem = 405 nm) using a Berthold TriStar LB 941 microplate reader (Berthold Technologies, Bad Wildbad, Germany). Initial velocities (V 0) were plotted against substrate concentrations [S] and analyzed via nonlinear regression using a one-site specific binding model using GraphPad Prism v8.2.1 software (GraphPad software Inc., San Diego, CA, USA). […]

hACE2 [4] = biological target: T2, hACE2; assay type: binding; conditions: yeast-displayed MP, serial dilutions of biotinylated hACE2
hACE2 [5] = biological target: T2, hACE2; design: method as in ref 2 (SI list; Harman et al. 2023); conditions: phage display bicyclic peptides, ref 2 (SI list; Harman et al. 2023), cited from earlier work; for Ki: where not reported, calculated by Cheng-Prusoff, Km 23 μM
hACE2 [6] = biological target: T2, hACE2; design: method as in ref 2 (SI list; Harman et al. 2023); conditions: phage display bicyclic peptides; ref 2 (SI list; Harman et al. 2023); cited from earlier work
hACE2 [7] = biological target: T2, hACE2; design: method as in ref 4 (SI list; Huang et al. 2003); conditions: phage display DX peptides, ref 4 (SI list; Huang et al. 2003), cited from earlier work; for Ki: where not reported, calculated by Cheng-Prusoff, Km 23 μM
hACE2 [8] = biological target: T2, hACE2; design: method as in ref 4 (SI list; Huang et al. 2003); conditions: phage display DX peptides; ref 4 (SI list; Huang et al. 2003); cited from earlier work
hACE2 [9] = biological target: T2, hACE2; design: method as in ref 3 (SI list; Bedding et al. 2024); conditions: mRNA display cyclic peptides; ref 3 (SI list; Bedding et al. 2024); cited from earlier work
hACE2 [10] = biological target: T2, hACE2; design: method as in ref 3 (SI list; Bedding et al. 2024); conditions: mRNA display cyclic peptides, ref 3 (SI list; Bedding et al. 2024), cited from earlier work; for Ki: where not reported, calculated by Cheng-Prusoff, Km 23 μM

T1 sequence (P12821 30-1306): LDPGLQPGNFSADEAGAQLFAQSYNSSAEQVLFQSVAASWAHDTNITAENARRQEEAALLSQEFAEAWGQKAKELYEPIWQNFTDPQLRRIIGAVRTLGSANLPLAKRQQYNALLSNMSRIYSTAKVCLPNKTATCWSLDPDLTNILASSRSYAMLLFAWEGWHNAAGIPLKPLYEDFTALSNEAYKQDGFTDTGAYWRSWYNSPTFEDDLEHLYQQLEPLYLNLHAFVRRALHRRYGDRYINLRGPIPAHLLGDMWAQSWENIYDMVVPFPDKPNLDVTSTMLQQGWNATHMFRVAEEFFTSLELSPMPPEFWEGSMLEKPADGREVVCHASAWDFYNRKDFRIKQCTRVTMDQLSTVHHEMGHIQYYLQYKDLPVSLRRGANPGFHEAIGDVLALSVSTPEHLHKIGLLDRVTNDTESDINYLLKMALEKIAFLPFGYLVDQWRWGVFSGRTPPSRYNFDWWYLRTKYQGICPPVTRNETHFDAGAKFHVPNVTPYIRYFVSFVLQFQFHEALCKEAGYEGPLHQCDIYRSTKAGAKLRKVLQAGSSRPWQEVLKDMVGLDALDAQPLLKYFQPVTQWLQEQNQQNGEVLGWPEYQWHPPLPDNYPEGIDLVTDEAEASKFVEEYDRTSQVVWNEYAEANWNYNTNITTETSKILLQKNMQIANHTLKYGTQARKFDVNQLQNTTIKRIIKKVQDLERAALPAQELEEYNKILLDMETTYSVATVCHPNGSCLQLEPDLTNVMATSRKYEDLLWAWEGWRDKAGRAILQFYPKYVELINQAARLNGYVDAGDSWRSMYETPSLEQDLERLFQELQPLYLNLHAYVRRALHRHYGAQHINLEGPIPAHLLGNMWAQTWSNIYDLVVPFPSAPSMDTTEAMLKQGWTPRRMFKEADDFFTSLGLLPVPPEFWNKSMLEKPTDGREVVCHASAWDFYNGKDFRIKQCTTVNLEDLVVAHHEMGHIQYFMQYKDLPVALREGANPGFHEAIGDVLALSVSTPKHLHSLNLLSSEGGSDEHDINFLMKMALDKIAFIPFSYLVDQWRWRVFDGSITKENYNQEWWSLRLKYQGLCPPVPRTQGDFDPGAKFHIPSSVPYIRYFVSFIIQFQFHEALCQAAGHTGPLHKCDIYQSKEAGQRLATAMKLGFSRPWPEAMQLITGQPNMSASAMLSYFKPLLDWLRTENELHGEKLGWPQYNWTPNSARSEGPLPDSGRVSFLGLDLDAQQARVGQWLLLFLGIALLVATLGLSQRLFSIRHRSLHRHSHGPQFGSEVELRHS
T2 sequence (Q9BYF1 19-615): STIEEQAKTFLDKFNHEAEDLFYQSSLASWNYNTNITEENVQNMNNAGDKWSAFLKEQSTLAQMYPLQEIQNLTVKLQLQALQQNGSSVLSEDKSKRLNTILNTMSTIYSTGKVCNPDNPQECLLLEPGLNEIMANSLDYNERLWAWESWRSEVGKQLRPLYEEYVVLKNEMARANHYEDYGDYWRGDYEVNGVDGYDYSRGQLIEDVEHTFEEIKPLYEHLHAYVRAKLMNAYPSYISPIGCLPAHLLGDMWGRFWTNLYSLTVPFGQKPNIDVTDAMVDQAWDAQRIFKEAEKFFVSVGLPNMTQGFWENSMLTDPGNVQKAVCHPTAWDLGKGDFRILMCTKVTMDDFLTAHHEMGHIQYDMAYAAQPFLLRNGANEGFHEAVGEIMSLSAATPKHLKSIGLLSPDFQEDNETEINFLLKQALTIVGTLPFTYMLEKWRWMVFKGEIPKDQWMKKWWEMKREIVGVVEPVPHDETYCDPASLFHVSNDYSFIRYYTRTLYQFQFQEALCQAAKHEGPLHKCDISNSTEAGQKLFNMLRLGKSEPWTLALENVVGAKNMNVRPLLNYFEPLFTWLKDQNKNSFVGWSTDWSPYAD

## CC(=O)NCC(=O)N[C@@H](CC(=O)O)C(=O)N[C@@H](Cc1ccc(O)cc1)C(=O)N[C@@H](CO)C(=O)N[C@@H](Cc1cnc[nH]1)C(=O)N[C@H]1CSSC[C@@H](C(=O)N[C@H](C(=O)N[C@@H](Cc2ccc(O)cc2)C(=O)N2CCC[C@H]2C(=O)N[C@@H](CC(=O)O)C(=O)N2CCC[C@H]2C(=O)N[C@@H](CCC(=O)O)C(=O)NCC(=O)NCC(=O)NCC(N)=O)[C@@H](C)O)NC(=O)[C@H](CCCCN)NC(=O)[C@H](Cc2c[nH]c3ccccc23)NC(=O)[C@H](Cc2c[nH]c3ccccc23)NC(=O)[C@@H]2CCCN2C(=O)[C@H](Cc2ccc(O)cc2)NC(=O)[C@H](Cc2ccc(O)cc2)NC(=O)[C@H](CCCNC(=N)N)NC(=O)[C@H](CC(C)C)NC(=O)[C@@H]2CCCN2C(=O)[C@H](CO)NC1=O [DX600]
hACE1
  IC50: > 100000 nM

## CC[C@H](C)[C@@H]1NC(=O)[C@H](Cc2ccccc2)NC(=O)[C@H](Cc2ccccc2)NC(=O)[C@@H](NC(=O)[C@H](C)N)CSSC[C@@H](C(=O)N[C@@H](CO)C(=O)NCC(N)=O)NC(=O)[C@H]([C@@H](C)CC)NC(=O)[C@H](Cc2c[nH]c3ccccc23)NC(=O)[C@H](CCCNC(=N)N)NC(=O)[C@H](CC(N)=O)NC(=O)[C@H](Cc2ccccc2)NC(=O)CNC1=O [GR1.1]
hACE1
  IC50: > 100000 nM
  Ki: > 100000 nM
[1]
  half-life: 5.4 h

## CC(C)C[C@@H]1NC(=O)[C@H](CC(N)=O)NC(=O)[C@H](Cc2ccc(O)cc2)NC(=O)CNC(=O)[C@H](CC(C)C)NC(=O)[C@@H]2CCCN2C(=O)[C@H](CCC(=O)O)NC(=O)[C@@H](NC(=O)[C@H](C)N)CSSC[C@@H](C(=O)N[C@@H](CO)C(=O)NCC(N)=O)NC(=O)[C@H](CC(C)C)NC(=O)[C@H](Cc2ccccc2)NC1=O [GR1.4]
hACE1
  IC50: > 100000 nM
  Ki: > 100000 nM
hACE2 [2]
  ΔH (ITC): -8.01 ± 0.12 kcal/mol
hACE2 [2]; calculated
  -TΔS (ITC): -1.94 kcal/mol
[1]
  half-life: 6.5 h

## CC(C)C[C@@H]1NC(=O)[C@H](Cc2ccccc2)NC(=O)[C@@H](NC(=O)[C@H](C)N)CSSC[C@@H]2NC(=O)[C@H](CCCCN)NC(=O)[C@H](C(C)C)NC(=O)[C@H](CC(=O)O)NC(=O)[C@H](CCCNC(=N)N)NC(=O)[C@H](Cc3c[nH]cn3)NC(=O)[C@H](CSSC[C@@H](C(=O)N[C@@H](CO)C(=O)NCC(N)=O)NC(=O)[C@H](Cc3c[nH]c4ccccc34)NC(=O)[C@H](CC(C)C)NC(=O)[C@H](Cc3c[nH]c4ccccc34)NC2=O)NC(=O)[C@H](CCCNC(=N)N)NC1=O [GR3.1.3]
hACE2 [3]
  Ki: 1040 nM

## ACEPAGYNLFLCSG [GR1.6]
hACE2 [4]
  binding to hACE2 in yeast surface titration (in words): completely abolished

## ACEPLAYNLFLCSG [GR1.7]
hACE2 [4]
  binding to hACE2 in yeast surface titration (in words): completely abolished

## ACEPLGANLFLCSG [GR1.8]
hACE2 [4]
  binding to hACE2 in yeast surface titration (in words): completely abolished

## ACEPLGFNRWICSG [GR1.3, yeast-encoded “one-ring” macrocyclic peptide, GR1 family]
hACE2 [4]
  binding to hACE2 in yeast surface titration (in words): comparable binding affinities

## ACEPLGYALFLCSG [GR1.9]
hACE2 [4]
  binding to hACE2 in yeast surface titration (in words): significantly attenuated

## ACGREELPCRIKLCA [BCY15298]
hACE2 [5]
  IC50: > 40000 nM

## ACGRQFCHTLMPRHLCA [BCY15292]
hACE2 [6]
  Kd: 1.2 nM
hACE2 [5]
  IC50: 2.6 nM
  Ki: 1.2 nM

## ACHKFPCRDPQQYLFCA [BCY15296]
hACE2 [6]
  Kd: 29 nM
hACE2 [5]
  IC50: 47 nM
  Ki: 21 nM

## ACHRDFPRCTWETQWCA [BCY15297]
hACE2 [6]
  Kd: 11000 nM
hACE2 [5]
  IC50: 12000 nM
  Ki: 5200 nM

## ACLRSYNLCPRINCA [BCY15294]
hACE2 [6]
  Kd: 850 nM
hACE2 [5]
  IC50: 2400 nM
  Ki: 1100 nM

## ACTRPWCHSLLPRATCA [BCY15293]
hACE2 [6]
  Kd: 1.6 nM
hACE2 [5]
  IC50: 4.9 nM
  Ki: 2.2 nM

## ACVRSHCSSLLPRIHCA [BCY15291]
hACE2 [6]
  Kd: 0.4 nM and 0.44 nM
hACE2 [5]
  IC50: 2 nM
  Ki: 0.9 nM

## AGQKECKFGYPHCLPWGT [DX530]
hACE2 [7]
  IC50: 30000 nM

## AGSDWCGTWNNPCFHQGT [DX531]
hACE2 [7]
  IC50: 500 nM
  Ki: 540 nM

## AGWEVCHWAPMMCKHGGT [DX529]
hACE2 [7]
  IC50: 400 nM
  Ki: 380 nM

## GDFSPCKALRHSPWWVCPSGDP [DX602]
hACE2 [8]
  Kd: 74.4 nM
hACE2 [7]
  IC50: 128 nM
  Ki: 121 nM

## GDGFTCSPIRMFPWFRCDLGDP [DX601]
hACE2 [8]
  Kd: 56.3 nM
hACE2 [7]
  IC50: 56.8 nM
  Ki: 30.9 nM

## GDLHACRPVRGDPWWACTLGDP [DX513]
hACE2 [8]
  Kd: 170 nM
hACE2 [7]
  IC50: 90 nM
  Ki: 126 nM

## GDRLHCKPQRQSPWMKCQHLDP [DX512]
hACE2 [8]
  Kd: 96 nM
hACE2 [7]
  IC50: 60 nM
  Ki: 139 nM

## GDRYLCLPQRDKPWKFCNWFDP [DX599]
hACE2 [8]
  Kd: 48.6 nM
hACE2 [7]
  IC50: 114 nM
  Ki: 46.5 nM

## GSRGFCRDSSCSFPAP [DX525]
hACE2 [7]
  IC50: 1000 nM
  Ki: 1700 nM

## GSRIGCRDSRCNWWAP [DX524]
hACE2 [7]
  IC50: 600 nM
  Ki: 540 nM

## Y*AVLLHKGKFVFTYGC [peptide12]
hACE2 [9]
  Kd: 610 nM
hACE2 [10]
  IC50: 39500 nM
  Ki: 7390 nM

## Y*FQRSVRLPYLRC [peptide2]
hACE2 [9]
  Kd: 0.04 nM

## Y*VFRSLRTPFIVC [peptide1]
hACE2 [9]
  Kd: 0.4 nM

## Y*VKRNVYEGYKPC [peptide15]
hACE2 [9]
  Kd: 7.3 nM

## Y*VLSSPRGALRALRC [peptide3]
hACE2 [9]
  Kd: 290 nM

## Y*WTLFVFRDGVLPVWSC [peptide9]
hACE2 [9]
  Kd: 50.3 nM
hACE2 [10]
  IC50: 2050 nM
  Ki: 383 nM

## y*ARPLRHRPWYVSWC [peptide6]
hACE2 [9]
  Kd: 3.3 nM

## y*DAYTRRTHRNPRLCQC [peptide7]
hACE2 [9]
  Kd: 32 nM

## y*FNRSGKLLFLYC [peptide4]
hACE2 [9]
  Kd: 240 nM

## y*IRQFTSRVPLHC [peptide21]
hACE2 [9]
  Kd: 3.6 nM

## y*LSVNRVFAYRIIYKC [peptide23]
hACE2 [9]
  Kd: 9.1 nM

## y*RLHRSPWAHFGFAC [peptide20]
hACE2 [9]
  Kd: 228 nM
hACE2 [10]
  IC50: 1980 nM
  Ki: 370 nM

## y*SYQYRGRFHRQC [peptide19]
hACE2 [9]
  Kd: 78 nM

## y*TYQYRDRFFRPC [peptide22]
hACE2 [9]
  Kd: 14.8 nM

## y*VHIIYWKNGLPRITC [peptide14]
hACE2 [9]
  Kd: 82.3 nM
hACE2 [10]
  IC50: 9720 nM
  Ki: 1820 nM

## y*VQRPIRNVRLIRC [peptide24]
hACE2 [9]
  Kd: 430 nM

## y*VVLRPLRDLGRVFC [peptide5]
hACE2 [9]
  Kd: 9 nM
